Results on 26 sequences are retold here after the supplement of paper PMC12764529.

± gives the half width of the 95% confidence interval.

The nature of series [1]: folding stability dG unfold (combined trypsin and chymotrypsin); higher = more stable. The essentials: (§1)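 Unfolding free energy was derived, per protease or combined, by relating Bayesian-fitted K50 values from sequencing counts to a sequence-predicted unfolded-state K50 and a shared folded-state K50. The underlying digests exposed cysteine-free mini-proteins under 80 residues, in a PA-tagged cDNA display construct, to trypsin and chymotrypsin at 11 threefold-diluted concentrations and to a no-protease condition. A filter kept only designs with AlphaFold2 dimer inter-PAE above 15.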

Series [2] in a line: folding stability dG unfold from trypsin proteolysis; higher = more stable. The essentials: as §1
The nature of series [3]: folding stability dG unfold from chymotrypsin proteolysis; higher = more stable. The essentials: as §1

Regarding “SAGGSAGGSAGGSIVIEVDTLEEAKKLAEKLNLKVTEVKEVDGKLYVKIEIKSPEELKKSAGGSAGGSAGGS [r10_218_TrROS_Hall]”, the results for the “folding stability dG unfold” value in series [1], in series [2] and in series [3] were 1.53 ± 0.12 kcal/mol, 0.204 ± 0.11 kcal/mol and 2.002 ± 0.018 kcal/mol, respectively.

With “SAGGSAGGSAGGSKDERTLTLRLRVTTPIYGTDADGNPLEPIEVTKEYELTVTVPADLLSAGGSAGGSAGGS [r4_425_TrMRF]”, the “folding stability dG unfold” value in series [1] was determined as 2.1 ± 0.16 kcal/mol; in series [2] it was 1.18 ± 0.082 kcal/mol; in series [3], 2.69 ± 0.099 kcal/mol.

On to “SAGGSAGGSAGGSKFLVKTSVEVFKNPVGGNRYGAKITTLAVNPDTNEVTLSESYLPLDLSAGGSAGGSAGG [r7_216_TrMRF]”, for which the entries for the “folding stability dG unfold” value in series [1], in series [2] and in series [3] were 0.62 ± 0.12 kcal/mol, 0.114 ± 0.11 kcal/mol and 0.842 ± 0.13 kcal/mol, respectively.

As for “SAGGSAGGSAGGSKIEIEEENGELKITIEVDGKKYEITIPKDMTLEEALKKALEKLPGLSAGGSAGGSAGGS [r4_191_TrROS_Hall]”, the “folding stability dG unfold” value in series [1] is 3.09 ± 0.18 kcal/mol; in series [2] it was 3.45 ± 0.69 kcal/mol; in series [3] it was 2.5 ± 0.087 kcal/mol.

In the case of “SAGGSAGGSAGGSKIENIKDIERNPNPDGHYMITIPNGWQIVVRMDKNGKMEIEIVPLKSAGGSAGGSAGGS [r4_177_TrROS]”, the figures for the “folding stability dG unfold” value in series [1], in series [2] and in series [3] were 1.82 ± 0.15 kcal/mol, 1.87 ± 0.076 kcal/mol and 1.88 ± 0.039 kcal/mol, respectively.

Turning to “SAGGSAGGSAGGSKKKKKKKKKKVVKLTVLIEKDGELYLVEIEFDKDGKIVSISVEKLPSAGGSAGGSAGGS [r4_192_TrROS_Hall]”, the entries for the “folding stability dG unfold” value in series [1], in series [2] and in series [3] were 3.27 ± 0.32 kcal/mol, 2.12 ± 0.16 kcal/mol and 4 ± 0.27 kcal/mol, respectively.

In the case of “SAGGSAGGSAGGSKKKPPKKITLVVWNEETGELTKVEFDAETKEVKVEKVPIKPGDILLSAGGSAGGSAGGS [r4_409_TrROS_Hall]”, the “folding stability dG unfold” value was 0.988 ± 0.21 kcal/mol in series [1], 1.18 ± 0.034 kcal/mol in series [2] and 0.946 ± 0.062 kcal/mol in series [3].

On to “SAGGSAGGSAGGSKPEVIKLKVKKIKVKKKKYDKNGKLVEEEEKEITVETTVFVPKEDLSAGGSAGGSAGGS [r4_425_TrROS_Hall]”, for which the “folding stability dG unfold” value in series [1] was 0.182 ± 0.17 kcal/mol; in series [2], -0.381 ± 0.18 kcal/mol; in series [3], 0.336 ± 0.14 kcal/mol.

For “SAGGSAGGSAGGSKPMYLFTVETENGKKLVIEAKSLEEALKALEKAGYKIKKVEVVKLPSAGGSAGGSAGGS [r4_213_TrROS_Hall]”, the entries for the “folding stability dG unfold” value in series [1], in series [2] and in series [3] were 3.81 ± 0.071 kcal/mol, 3.36 ± 0.1 kcal/mol and 3.996 ± 0.036 kcal/mol, respectively.

Consider “SAGGSAGGSAGGSKPNNFKNIPKPVFKFKITTTEWKKNKDGTWTPVSTSTAEVTVWSNTSAGGSAGGSAGGS [r4_288_TrMRF]”, for which the results for the “folding stability dG unfold” value in series [1], in series [2] and in series [3] were 3.88 ± 0.21 kcal/mol, 3.2 ± 0.11 kcal/mol and 4.29 ± 0.1 kcal/mol, respectively.

As to “SAGGSAGGSAGGSKTIEIELPGMSPEEIAAAIAEELGLDDVKITVERTEDGLLRVTIEVSAGGSAGGSAGGS [r4_408_TrROS_Hall]”, the results for the “folding stability dG unfold” value in series [1], in series [2] and in series [3] were 1.76 ± 0.057 kcal/mol, 1.57 ± 0.057 kcal/mol and 1.81 ± 0.049 kcal/mol, respectively.

“SAGGSAGGSAGGSKYEIEILKIEELEDDSYRITAKINIPEAGTTEEITLTVPKGVELKLSAGGSAGGSAGGS [r4_133_TrMRF]”: the “folding stability dG unfold” value came to 1.23 ± 0.072 kcal/mol in series [1], 1.21 ± 0.017 kcal/mol in series [2] and 1.21 ± 0.062 kcal/mol in series [3].

Turning to “SAGGSAGGSAGGSLTFDGPDTKIEVYELDDDLLPVTIYTDSAPRTILVPPKEFLKLLASSAGGSAGGSAGGS [r4_346_TrMRF]”, the “folding stability dG unfold” value came out at 0.367 ± 0.089 kcal/mol in series [1], 0.0915 ± 0.071 kcal/mol in series [2] and 0.449 ± 0.085 kcal/mol in series [3].

With “SAGGSAGGSAGGSMELKLKVVEKTETRSATPGEDEPLPGNSSVTYEGNTLTTTTLVLVPLSAGGSAGGSAGG [r7_506_JUSTAS]”, the “folding stability dG unfold” value in series [1] was -0.72 ± 0.34 kcal/mol; in series [2], -0.728 ± 0.28 kcal/mol; in series [3], -0.736 ± 0.44 kcal/mol.

Consider “SAGGSAGGSAGGSMIVERKPAPGGPRVEITIEIPDPTSDVPIIKKLVAEVLEDGSIVKASAGGSAGGSAGGS [r4_448_JUSTAS]”, for which the “folding stability dG unfold” value is -0.205 ± 0.21 kcal/mol in series [1], -0.193 ± 0.16 kcal/mol in series [2] and -0.525 ± 0.27 kcal/mol in series [3].

On to “SAGGSAGGSAGGSMKIVEVELIEYDEETKEFVYVFRVRLEDGSERLIVITPDGEMRVVPSAGGSAGGSAGGS [r4_35_TrROS_Hall]”, for which the “folding stability dG unfold” value in series [1] worked out at 3.26 ± 0.055 kcal/mol; in series [2], 2.61 ± 0.064 kcal/mol; in series [3] it was 3.481 ± 0.031 kcal/mol.

As for “SAGGSAGGSAGGSMKNVPVTVEGSSSVVPLPDGSPVTVTELTTTTLGENGEVSTSTTVVSSAGGSAGGSAGG [r11_817_JUSTAS]”, the entries for the “folding stability dG unfold” value in series [1], in series [2] and in series [3] were 0.905 ± 0.083 kcal/mol, -0.614 ± 0.07 kcal/mol and 1.34 ± 0.039 kcal/mol, respectively.

As to “SAGGSAGGSAGGSMLKGKIISVDPKKGYAIIYIPGKKKLLIIKFDPDNTIVEIKEAPLSSAGGSAGGSAGGS [r4_192_TrMRF]”, the “folding stability dG unfold” value in series [1] came to 2.44 ± 0.33 kcal/mol; in series [2], 2.82 ± 0.35 kcal/mol; in series [3], 2.21 ± 0.14 kcal/mol.

As to “SAGGSAGGSAGGSMPVKLDEIIDYDPKKKVLTVLLTHPDGSKSLVVVPGKSIEEIKEANSAGGSAGGSAGGS [r4_357_TrMRF]”, the “folding stability dG unfold” value amounted to 0.648 ± 0.098 kcal/mol in series [1], 0.314 ± 0.029 kcal/mol in series [2] and 0.709 ± 0.029 kcal/mol in series [3].

For “SAGGSAGGSAGGSMSVSSVGSSSGAGMIVKTTYFPGSGGTTVVLIEPASGVVLATTPVPGSAGGSAGGSAGG [r7_154_JUSTAS]”, the “folding stability dG unfold” value in series [1] is 0.374 ± 0.13 kcal/mol; in series [2], 0.493 ± 0.04 kcal/mol; in series [3] it was 0.272 ± 0.079 kcal/mol.

Take “SAGGSAGGSAGGSMTSIKITYPDGSTKSASVSVDPNTGKVTTTFTDYTLSPDAKFTTISSAGGSAGGSAGGS [r10_306_JUSTAS]”: the “folding stability dG unfold” value in series [1] was found to be 0.325 ± 0.073 kcal/mol; in series [2], 0.372 ± 0.027 kcal/mol; in series [3], 0.202 ± 0.11 kcal/mol.

Regarding “SAGGSAGGSAGGSMVIRNENGYLIEVKTEVVVDEETKKKYVKTEIRIYKEGEEKELPEESAGGSAGGSAGGS [r4_48_TrROS_Hall]”, the “folding stability dG unfold” value turned out to be 1 ± 0.22 kcal/mol in series [1], 0.369 ± 0.055 kcal/mol in series [2] and 1.13 ± 0.1 kcal/mol in series [3].

On to “SAGGSAGGSAGGSMVLTTTVEETVVDENGVETKITVKTYKLPDSEITLVTFPDGTVTPESAGGSAGGSAGGS [r10_404_JUSTAS]”, for which the “folding stability dG unfold” value turned out to be 0.493 ± 0.072 kcal/mol in series [1], 0.493 ± 0.023 kcal/mol in series [2] and 0.462 ± 0.1 kcal/mol in series [3].

“SAGGSAGGSAGGSNIEVHYFPDGAIVMTIREPNGWYIKIVARIPPDGNIKITEIELFPMSAGGSAGGSAGGS [r4_246_TrROS]”: the “folding stability dG unfold” value in series [1] came to 3.49 ± 0.2 kcal/mol; in series [2], 3.24 ± 0.11 kcal/mol; in series [3] it was 3.78 ± 0.11 kcal/mol.

Take “SAGGSAGGSAGGSNIPSDSTVTSKGSSDTTTSTYYNPETGTTLVTTTPPDGVPTTTTTASAGGSAGGSAGGS [r10_592_JUSTAS]”: the “folding stability dG unfold” value in series [1] is 0.159 ± 0.12 kcal/mol; in series [2], 0.621 ± 0.059 kcal/mol; in series [3], -0.398 ± 0.36 kcal/mol.

For “SAGGSAGGSAGGSPEFKIVSVEYDPETGLVTLEIEREDGSTLRFVFDKDGKLVRVEELPSAGGSAGGSAGGS [r4_259_TrROS_Hall]”, the “folding stability dG unfold” value in series [1] came to 4.44 ± 0.19 kcal/mol; in series [2], 3.31 ± 0.22 kcal/mol; in series [3], 4.56 ± 0.15 kcal/mol.
